The text below walks through data of paper PMC3696110, “Hsp70 Oligomerization Is Mediated by an Interaction between the Interdomain Linker and the Substrate-Binding Domain” (PLoS ONE, 2013).

In general, stoichiometry N refers to the number of molecules, sites or subunits per partner or assembly.

A value given as a limit tells only on which side of the number the result lay.

The experiment deals with SBD641 (384-641), full-length substrate-binding domain of human Hsp70 with the interdomain linker (human) (UniProt P0DMV8). The experiment is described as follows: native MS; nESI-MS of SBD641 with NR peptide at 1:1 molar ratio, 150 mM ammonium acetate pH 7.4, sample cone voltage 60 V (raised for collisional activation).

On to NRLLLTG [NR peptide (NRLLLTG)], for which the peptide molecules bound per SBD641 dimer is below 2 and the stoichiometry N is 1.
